This passage reports response results from PMC10585736 (2023).

The chains are these.
B1: Pol30p (PCNA), wild type, of the POL30-0 strain [S. cerevisiae] / Rrm3p-Myc [S. cerevisiae] (parent complex)
chain 1: MLEAKFEEASLFKRIIDGFKDCVQLVNFQCKEDGIIAQAVDDSRVLLVSLEIGVEAFQEYRCDHPVTLGMDLTSLSKILRCGNNTDTLTLIADNTPDSIILLFEDTKKDRIAEYSLKLMDIDADFLKIEELQYDSTLSLPSSEFSKIVRDLSQLSDSINIMITKETIKFVADGDIGSGSVIIKPFVDMEHPETSIKLEMDQPVDLTFGAKYLLDIIKGSSLSDRVGIRLSSEAPALFQFDLKSGFLQFFLAPKFNDEE
chain 2: MFRSHASGNKKQWSKRSSNGSTPAASASGSHAYRQQTLSSFFMGCGKKSAAASKNSTTIIDLESGDEGNRNITAPPRPRLIRNNSSSLFSQSQGSFGDDDPDAEFKKLVDVPRLNSYKKSSRSLSMTSSLHKTASASTTQKTYHFDEDETLREVTSVKSNSRQLSFTSTINIEDSSMKLSTDSERPAKRSKPSMEFQGLKLTVPKKIKPLLRKTVSNMDSMNHRSASSPVVLTMEQERVVNLIVKKRTNVFYTGSAGTGKSVILQTIIRQLSSLYGKESIAITASTGLAAVTIGGSTLHKWSGIGIGNKTIDQLVKKIQSQKDLLAAWRYTKVLIIDEISMVDGNLLDKLEQIARRIRKNDDPFGGIQLVLTGDFFQLPPVAKKDEHNVVKFCFESEMWKRCIQKTILLTKVFRQQDNKLIDILNAIRYGELTVDIAKTIRNLNRDIDYADGIAPTELYATRREVELSNVKKLQSLPGDLYEFKAVDNAPERYQAILDSSLMVEKVVALKEDAQVMMLKNKPDVELVNGSLGKVLFFVTESLVVKMKEIYKIVDDEVVMDMRLVSRVIGNPLLKESKEFRQDLNARPLARLERLKILINYAVKISPHKEKFPYVRWTVGKNKYIHELMVPERFPIDIPRENVGLERTQIPLMLCWALSIHKAQGQTIQRLKVDLRRIFEAGQVYVALSRAVTMDTLQVLNFDPGKIRTNERVKDFYKRLETLK

Variants of B1 are the subject of this experiment. Briefly: co-immunoprecipitation, western blot band quantification; α-Myc IP; parent: 2.1; read off a plot. In general terms: A western blot detects proteins with antibodies after separation by electrophoresis.
Take chain 1 L126A, chain 1 I128A: the response is ~1.8 pixel density fold over input signal.
